Source: PMC5727259, “Voltage-gated sodium channels assemble and gate as dimers” (Nature Communications, 2017)

Target: the molecule itself
Assay: single-molecule pull-down (SiMPull) with GFP photobleaching step counting; lysate of transfected HEK293 cells (0.4% CHAPS buffer) perfused over anti-GFP antibody on passivated coverslips; low surface density (0.05 molecules/µm^2); TIRF imaging

| Protein | stoichiometry N |
| --- | --- |
| GFP-tagged chloride channel ClC-3 (natural protein, UniProt P51790 1-818, looked up, chloride channel ClC-3 from plasmid pCLC3sGFP (Addgene); also called ClC-3-GFP; pCLC3sGFP; source: HEK293, transfected, in lysate (CHAPS buffer)) MESEQLFHRGYYRNSYNSITSASSDEELLDGAGVIMDFQTSEDDNLLDGDTAVGTHYTMTNGGSINSSTHLLDLLDEPIPGVGTYDDFHTIDWVREKCKDRERHRRINSKKKESAWEMTKSLYDAWSGWLVVTLTGLASGALAGLIDIAADWMTDLKEGICLSALWYNHEQCCWGSNETTFEERDKCPQWKTWAELIIGQAEGPGSYIMNYIMYIFWALSFAFLAVSLVKVFAPYACGSGIPEIKTILSGFIIRGYLGKWTLMIKTITLVLAVASGLSLGKEGPLVHVACCCGNIFSYLFPKYSTNEAKKREVLSAASAAGVSVAFGAPIGGVLFSLEEVSYYFPLKTLWRSFFAALVAAFVLRSINPFGNSRLVLFYVEYHTPWYLFELFPFILLGVFGGLWGAFFIRANIAWCRRRKSTKFGKYPVLEVIIVAAITAVIAFPNPYTRLNTSELIKELFTDCGPLESSSLCDYRNDMNASKIVDDIPDRPAGIGVYSAIWQLCLALIFKIIMTVFTFGIKVPSGLFIPSMAIGAIAGRIVGIAVEQLAYYHHDWFIFKEWCEVGADCITPGLYAMVGAAACLGGVTRMTVSLVVIVFELTGGLEYIVPLMAAVMTSKWVGDAFGREGIYEAHIRLNGYPFLDAKEEFTHTTLAADVMRPRRNDPPLAVLTQDNMTVDDIENMINETSYNGFPVIMSKESQRLVGFALRRDLTIAIESARKKQEGIVGSSRVCFAQHTPSLPAESPRPLKLRSILDMSPFTVTDHTPMEIVVDIFRKLGLRQCLVTHNGRLLGIITKKDILRHMAQTANQDPASIMFN | 2 |
| transient outward potassium channel Kv4.3 tagged with GFP (natural protein, UniProt Q9UK17 1-655, looked up, potassium channel Kv4.3 from plasmid pcDNA3.1-Kv4.3-GFP; also called Kv4.3-GFP; pcDNA3.1-Kv4.3-GFP; source: HEK293, transfected, in lysate (CHAPS buffer)) MAAGVAAWLPFARAAAIGWMPVANCPMPLAPADKNKRQDELIVLNVSGRRFQTWRTTLERYPDTLLGSTEKEFFFNEDTKEYFFDRDPEVFRCVLNFYRTGKLHYPRYECISAYDDELAFYGILPEIIGDCCYEEYKDRKRENAERLMDDNDSENNQESMPSLSFRQTMWRAFENPHTSTLALVFYYVTGFFIAVSVITNVVETVPCGTVPGSKELPCGERYSVAFFCLDTACVMIFTVEYLLRLFAAPSRYRFIRSVMSIIDVVAIMPYYIGLVMTNNEDVSGAFVTLRVFRVFRIFKFSRHSQGLRILGYTLKSCASELGFLLFSLTMAIIIFATVMFYAEKGSSASKFTSIPASFWYTIVTMTTLGYGDMVPKTIAGKIFGSICSLSGVLVIALPVPVIVSNFSRIYHQNQRADKRRAQKKARLARIRVAKTGSSNAYLHSKRNGLLNEALELTGTPEEEHMGKTTSLIESQHHHLLHCLEKTTGLSYLVDDPLLSVRTSTIKNHEFIDEQMFEQNCMESSMQNYPSTRSPSLSSHPGLTTTCCSRRSKKTTHLPNSNLPATRLRSMQELSTIHIQGSEQPSLTTSRSSLNLKADDGLRPNCKTSQITTAIISIPTPPALTPEGESRPPPASPGPNTNIPSIASNVVKVSAL | 4 |
